Our source for the activity values is patent US20140298547.

Common to all, as to assay: cell_activity
Series [1] has as its system ZFP SBS8196 (monomer of eZFN1) (synthetic construct). Conditions: as eZFN1 pair with SBS15590; in planta cut plus chimeric, 524/1125 plants.
Series [2] concerns ZFP SBS15590 (monomer of eZFN1 and eZFN8) (synthetic construct). Conditions: in planta cut plus chimeric.
The subject of series [3] is ZFP SBS18473 (monomer of eZFN8) (synthetic construct). The settings on record: as eZFN8 pair with SBS15590; in planta cut plus chimeric, 489/697 plants.

Take “ATTTTACAATCCTGTCCCTAGTGAGATGGGCGGGAGTCTTCAATCCTGTCCCTAGTGGATAAACTGCAAAAGGCGGATCA (double strand) [ELP locus eZFN1/eZFN8 binding region]”: the activity in series [1] was determined as 46.6%; in series [2] (as eZFN1 pair with SBS8196, 524/1125 plants) it was 46.6%; in series [2] (as eZFN8 pair with SBS18473, 489/697 plants), 70.2%; in series [3] it was 70.2%.
